Common to all, as to type: biochemical
Data set [1] is described as follows: PLA2 activity assay toward DPPC. Conditions: for Activity: 100 mM Hepes. The protocol: (§1) The protein concentration was determined by the Bio-Rad protein assay, using bovine serum albumin (BSA) as standard. Protein purity was examined using 12% SDS-PAGE and Coomassie blue staining. LysoPLA activity was measured at 40° C. in the assay buier containing LysoPC, 100 mM Tris-HCl (pH 8.0) and 10 mM LMe. Cold 1-palmitoyl-sn-glycero-3-phosphorylcholine (125 μM, unless indicated otherwise) was mixed with 1-[14 C]palmitoyl-sn-glycero-3-phosphorylcholine (100,000 cpm) in a total volume of 0.5 ml. The assay was initiated by adding an aliquot of enzyme solution to the substrate mixture and incubating for the desired time. The released fatty acid was extracted by the modified Dole method and then quantified by scintillation counting. The PLA2 activity assay was carried out, using various ^14C-labeled phospholipid substrates under various conditions as given in the text. The rat brain iPLA2 was purified as described elsewhere (H. C. Yang et al., manuscript in preparation incorporated herein). Human recombinant cPLA2 was a gift from Drs. J. D. Sharp and R. M. Kramer at Lilly Laboratories. 1-[^14C]Palmitoyl-sn-glycero-3-phosphorylcholine and 1-palmitoyl-2-[1-^14C]palmitoyl-sn-glycerol-3-phosphorylcholine were purchased from Amersham. 1-Palmitoyl-2-[1-^14C]arachidonoyl-sn-glycerol-3-phosphorylcholine was purchased from DuPont-NEN. All unlabeled phospholipids were purchased from Avanti Polar Lipids. Triton X-100 (TX-100) and PIP2 were obtained from CalBiochem.
(§2) When we first purified the mouse LysoPLA from P388D1 cells, no other enzymatic activities (PLA1, PLA2, acyltransferase, transacylase and esterase) were found. Therefore, it appears to be a LysoPL-specific LysoPLA. Similar results were obtained for the rat LysoPLA and the relative rates towards different LysoPL substrates were reported [Sugimoto et al., (1996) J. Biol. Chem. 271, 7705-11]. However, a recently sequenced rabbit enzyme that shares high sequence homology (approx. 97%) to the rat/mouse LysoPLA was reported to have both PLA2 and LysoPLA activities [Portilla, et al., […] J. Am. Soc.Nephrol. 9, 1178-86]. The specific activities, however, were only 10 nmol/min/mg for PLA2 activity and 20 nmol/min/mg for LysoPLA activity. The PLA2 activity was also reported to be selective for PlsCho substrate with arachidonic acid at the sn2 position. To determine whether hLysoPLA also expresses PLA2 activity, we have explored its ability to hydrolyze arachidonic acid labeled PlsCho as well as other phospholipid substrates under a variety of conditions.

Data set [2] can be described thus: PLA2 activity assay toward plasmenylcholine. The protocol: as §1
The sn-2 labeled PlsCho (plasmenylcholine or 1-O— (Z)-1P-alkenyl-2-arachidonoyl-sn-glycero-3-phosphocholine) was synthesized as follows. A total of 4 μmol [1-14C]arachidonic acid (from NEN, with specific activity […]) was diluted 10 times with cold arachidonic acid in 250 μl distilled methylene chloride (Fisher Scientific). To this 0.04 mmol p(N,N-dimethyl)amino pyridine (Aldrich) and 0.08 mmol 1,3-dicyclohexyl carbodiimide (Aldrich) were added to yield the arachidonoyl anhydride upon 1 h of stirring. Lysoplasmenylcholine (0.06 mmol, from Serdary) dissolved in 200 μl methylene chloride and 50 μl pyridine (Fisher Scienticc) was added to the arachidonoyl anhydride solution with 0.03 μmol dimethylaminopyridine and left stirring for 8 h. The reaction progress was monitored by thin layer chromatography (Merck) using a mobile phase of chloroform:methanol:triethyl amine:water (65:30:1.5:3.5), and retardation factors were 0.6 and 0.2 for PlsCho and LysoPlsCho, respectively. The separation of the product was carried out by preparative layer chromatography (Merck) in the above mobile system. The reaction yielded a total of 3.6 mg (7.7 μmol) of radiolabeled PlsCho (specific activity 0.18 μCi/μmol) by quantitative phosphate analysis.
as §2

The nature of data set [3]: LysoPLA activity assay (release of fatty acid from 14C-LysoPC). As to the method:
as §1
To investigate the catalytic properties of the hLy-soPLA, we first determined the specific activity of hLysoPLA as a function of substrate (1-palmitoyl LysoPC) concentration. […] There seems to be some cooperativity, since the data fit to the Hill equation (solid line in FIG. 3) with n=1.53 ? 0.08, kcat=1.34 ? 0.04 μmol/min/mg, and substrate at half-maximal saturation is 12.7±0.9 μM.
TX-100 is often used in the purification and stabilization of membrane-associated proteins. In addition, it is used to change the surface concentration of the substrate in the mixed-micelle assay for mechanistic studies. To determine the dependence of the enzyme activity on the substrate surface concentration, we measured the hLysoPLA activity under two conditions:
(1) the bulk LysoPC concentration (1.125 mM) was kept constant and the TX-100 concentration was varied (FIG. 4A);
(2) the bulk TX-100 concentration (1 mM) was kept constant and the LysoPC concentration was varied (FIG. 4B).
In addition, we have carried out detailed kinetic measurements and analysis to test the surface dilution kinetic model and results are shown in FIG. 4° C. The experimental data were fitted globally to Eq. 1 derived from the model in which hLysoPLA follows the two-step binding kinetics (Scheme 1). That is, hLysoPLA (E) binds first to the mixed-micellar surface (S) and then to the LysoPC substrate (A) presented on the surface.
[formula] [formula] Here, [LysoPC+TX-100] is the total molar concentration in the bulk solution, and {LysoPC®} is the molar fraction of the substrate on the mixed-micellar surface. Calculation of the amount of TX-100 in the micelle takes into account the amount of monomeric detergent in the solution, assuming the critical micelle concentration of TX-100 is 0.25 mM. The fitting parameter Ks represents the dissociation constant (k31/k1) for the mixed-micellar surface, Km represents the apparent Michaelis constant (=(k3+ k32)/k2) on the surface, and Vmax is the catalytic turnover rate.

The nature of data set [4]: PLA2 activity assay toward PAPC. Particulars: for Activity: 100 mM Hepes, pH 7.5, 80 μM Ca2+, 2 mM DTT, 0.1 mg/ml BSA. The protocol: as §1, §2
The mark [5] stands for this setting: Hill equation fit, pure LysoPC (FIG. 3).
The mark [6] stands for this setting: global fit to surface dilution model, LysoPC/TX-100 mixed micelles.

The results in this text go back to patent US7294496B1, “Cloned human lysophospholipase” (The Regents of the University of California, priority 2000, dated 2007).

B1: hLysoPLA: recombinant human brain lysophospholipase, single 25 kDa polypeptide of 230 amino acids (SEQ ID NO: 2), catalytic triad Ser-119, Asp-174, His-208 (protein, listed as Homo sapiens)
chain: MCGNNMSTPLPAIVPAARKATAAVIFLHGLGDTGHGWAEAFAGIRSSHIKYICPHAPVRPVTLNMNVAMPSWFDIIGLSPDSQEDESGIKQAAENIKALIDQEVKNGIPSNRIILGGFSQGGALSLYTALTTQQKLAGVTALSCWLPLRASLPQGPIGGANRDISILQCHGDCDPLVPLMFGSLTVEKLKTLVNPANVTFKTYEGMMHSSCQQEMMDVKQFIDKLLPPID
The Vmax is the top rate of the reaction or transport when substrate is in excess. As to B1, the “PLA2 activity toward phosphatidylcholine substrates (in words)” value in data set [1] (DPPC substrates) and in data set [4] (PAPC substrates) was “no PLA2 activity was found” in each case. Further, the Activity in data set [1] (DPPC/POPS sonicated vesicles (67 μM:33 μM), pH 7.5, 5 mM EDTA or Ca2+, 1 mg/ml BSA) was less than 0.0001 µmol/min/mg; in data set [1] (DPPC/TX-100 mixed micelles (100 μM:400 μM), pH 7.5, 2 mM DTT, 5 mM EDTA) it was less than 0.0001 µmol/min/mg; in data set [2] (PisCho sonicated vesicles (100 μM), 100 mM Tris, pH 8.0, 4 mM EGTA, 10 mM βMe), 0.0009 ± 0.0003 µmol/min/mg; in data set [2] (PisCho sonicated vesicles (100 μM), 100 mM Tris, pH 8.0, 150 mM NaCl, 3 mM MgCl2, 10 mM βMe), 0.0006 ± 0.0002 µmol/min/mg; in data set [2] (PisCho/TX-100 mixed micelles (100 μM:600 μM), 100 mM Hepes, pH 7.5, 10 mM βMe), 0.0024 ± 0.0004 µmol/min/mg; in data set [3] (LysoPC micelles (125 μM), 100 mM Tris, pH 8.0, 10 mM βMe) it was 1.13 ± 0.03 µmol/min/mg. Moreover, the Activity in data set [4] (PAPC/PIP2/TX-100 mixed micelles (97 μM:3 μM:400 μM)) and in data set [4] (PAPC/TX-100 mixed micelles (100 μM:400 μM)) was less than 0.0001 µmol/min/mg each time. Further, the “activity toward PlsCho substrate labeled with [14C]arachidonic acid (in words)” value in data set [2] (mixed micelles or vesicles) was “did not show any significant activity”. The same molecule showed a Hill coefficient n in data set [3] (Hill equation fit, activity vs 1-palmitoyl LysoPC concentration, 40° C. (FIG. 3)) of 1.53. The kcat in data set [3] (setting [5]) was 1.34 µmol/min/mg; in data set [3] (Michaelis-Menten fit, LysoPC 1.125 mM constant, TX-100 varied (FIG. 4A)), 1.6 µmol/min/mg; in data set [3] (Michaelis-Menten fit, TX-100 1 mM constant, LysoPC varied (FIG. 4B)) it was 1.7 µmol/min/mg. The “substrate at half-maximal saturation” value in data set [3] (setting [5]) was found to be 12.7 ± 0.9 µM. In data set [3] (setting [6]), the “Km (apparent Michaelis constant on the surface)” value stood at 12.2±0.9 mol %. Besides, the “Ks (dissociation constant for the mixed-micellar surface)” value in data set [3] (setting [6]) came out at 66 ± 7 µM. For the same molecule, in data set [3] (global fit to surface dilution model, LysoPC/TX-100 mixed micelles (FIG. 4C)), the Vmax is 1.37 ± 0.05 µmol/min/mg. In data set [3] (purified recombinant enzyme, His-Tag removed), the “specific activity toward palmitoyl LysoPC” value was “about 1.3 μmol/min/mg”.
